Laboratory results from patent publication US20110038892A1 (priority 2009, published 2011).
No end group written: not given here. *: point of attachment. FITC = O=C1OC2(c3ccc(O)cc3Oc3cc(O)ccc32)c2ccc(NC(=S)*)cc21; Ahx = NCCCCCC(=O)O

Tests used:
[1] = target: S3S25
[2] = target: S1S25
[3] = target: S3S23
[4] = target: S1S23
[5] = target: syntaxin1 (stx1) and SNAP25 (S25) (Rattus norvegicus, UniProt P32851+P60881)
[6] = system: SNARE assemblies; assay type: binding

Sequence of S1S23 (O00161 whole entry): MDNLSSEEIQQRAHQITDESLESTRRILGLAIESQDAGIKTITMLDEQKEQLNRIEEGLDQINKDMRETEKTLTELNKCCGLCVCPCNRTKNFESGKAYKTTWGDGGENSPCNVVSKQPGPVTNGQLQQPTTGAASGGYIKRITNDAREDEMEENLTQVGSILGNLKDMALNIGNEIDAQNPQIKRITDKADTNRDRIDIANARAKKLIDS
Sequence of S3S23 (O00161 whole entry): as above
Sequence of syntaxin1 (stx1) and SNAP25 (S25) (P60881 whole entry): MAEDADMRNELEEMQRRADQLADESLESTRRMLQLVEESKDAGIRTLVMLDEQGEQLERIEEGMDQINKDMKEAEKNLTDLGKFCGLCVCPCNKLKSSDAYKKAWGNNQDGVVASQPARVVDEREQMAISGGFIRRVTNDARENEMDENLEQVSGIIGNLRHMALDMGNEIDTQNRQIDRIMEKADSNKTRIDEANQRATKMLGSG
Sequence of syntaxin1 (stx1) and SNAP25 (S25) (P32851 whole entry): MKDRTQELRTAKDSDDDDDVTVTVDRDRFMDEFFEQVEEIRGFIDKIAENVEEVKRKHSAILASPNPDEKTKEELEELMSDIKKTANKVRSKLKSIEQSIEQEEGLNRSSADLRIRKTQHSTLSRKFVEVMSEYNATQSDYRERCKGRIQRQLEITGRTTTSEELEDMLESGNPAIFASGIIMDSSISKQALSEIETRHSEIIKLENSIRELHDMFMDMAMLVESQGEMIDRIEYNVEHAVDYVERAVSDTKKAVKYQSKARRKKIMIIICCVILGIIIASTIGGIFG

Molecule	Tm [1] [°C]	Tm [2] [°C]	Tm [3] [°C]	Tm [4] [°C]	formation of SDS-resistant complex [5]	interaction with SNARE assemblies [6]
synaptobrevin (VAMP2)	59	71	61	65		
{FITC-Ahx}-DKVLERDQKLSELDDRADALQAGASQFETSAAKLA [35 amino acid synaptobrevin SNARE motif]					forms a complex but it ‘melts’ during gel-electrophoresis	
{FITC-Ahx}-DIMRVNVDKVLERDQKLSELDDRADALQAGASQFETSAAKLA					still forms an SDS-resistant complex	
Ac-ERKAKYAKMEAEREVMRQGIRDKYGIKKGSGSGGIKVAV-NH2 [29 amino acid complexin 1 peptide]						can interact with SNARE assemblies
VAMP7 (protein) VAMP7: AILFAVVARGTTILAKHAWCGGNFLEVTEQILAKIPSENNKLTYSHGNYLFHYICQDRIVYLCITDDDFERSRAFSFLNEVKKRFQTTYGSRAQTALPYAMNSEFSSVLAAQLKHHSENKSLDKVMETQAQVDELKGIMVRNIDLVAQRGERLELLIDKTENLVDSSVTFKTTSRNLARAMCMKNIK	45	56	50	57		
VAMP5 (protein) VAMP5: AGKELKQCQQQADEVTEIMLNNFDKVLERHGKLAELEQRSDQLLDMSSAFSKTTKTLAQQKRWENIRCR	42	53	52	55		
VAMP4 (protein) VAMP4: PPKFKRHLNDDDVTGSVKSERRNLLEDDSDEEEDFFLRGPSGPRFGPRNDKIKHVQNQVDEVIDVMQENITKVIERGERLDELQDKSESLSDNATAFSNRSKQLRRQMWWRGCK	53	60	57	60		
VAMP8 (protein) VAMP8: EEASGSAGNDRVRNLQSEVEGVKNIMTQNVERILSRGENLDHLRNKTEDLEATSEHFKTTSQKVARKFWWKNVK	48	57	56	57		
